# B1: Two-pore channel TPC1 from Arabidopsis thaliana (AtTPC1) (natural protein, UniProt Q94KI8 1-733, looked up)
# chain: MEDPLIGRDSLGGGGTDRVRRSEAITHGTPFQKAAALVDLAEDGIGLPVEILDQSSFGESARYYFIFTRLDLIWSLNYFALLFLNFFEQPLWCEKNPKPSCKDRDYYYLGELPYLTNAESIIYEVITLAILLVHTFFPISYEGSRIFWTSRLNLVKVACVVILFVDVLVDFLYLSPLAFDFLPFRIAPYVRVIIFILSIRELRDTLVLLSGMLGTYLNILALWMLFLLFASWIAFVMFEDTQQGLTVFTSYGATLYQMFILFTTSNNPDVWIPAYKSSRWSSVFFVLYVLIGVYFVTNLILAVVYDSFKEQLAKQVSGMDQMKRRMLEKAFGLIDSDKNGEIDKNQCIKLFEQLTNYRTLPKISKEEFGLIFDELDDTRDFKINKDEFADLCQAIALRFQKEEVPSLFEHFPQIYHSALSQQLRAFVRSPNFGYAISFILIINFIAVVVETTLDIEESSAQKPWQVAEFVFGWIYVLEMALKIYTYGFENYWREGANRFDFLVTWVIVIGETATFITPDENTFFSNGEWIRYLLLARMLRLIRLLMNVQRYRAFIATFITLIPSLMPYLGTIFCVLCIYCSIGVQVFGGLVNAGNKKLFETELAEDDYLLFNFNDYPNGMVTLFNLLVMGNWQVWMESYKDLTGTWWSITYFVSFYVITILLLLNLVVAFVLEAFFTELDLEEEEKCQGQDSQEKRNRRRSAGSKSRSQRVDTLLHHMLGDELSKPECSTSDT
# Biological target: the molecule itself
# Assay: crystal structure
protein,measurement,value
B1,stoichiometry N,2

# From publication PMC4841471 (Nature, 2015)
